{"source": "patent US20140295452A1", "about": "(PIERRE FABRE MEDICAMENT, published 2014)", "molecules": {"B1": {"name": "11E1 anti-c-Met Mab (antibody, V domains shown)", "VH": "QVQLQQSGAELAKPGASVKMSCKASGYTFTSYWMNWVKQRPGQGLEWIGYINPTTGSTDYNQKLKDKATLTADKSSNTAYMQLSSLTSEDSAVYYCAIGGYGSWFAYWGQGTLVTVSA", "VL": "QIVLTQSPAIMSASPGEKVTLTCSASSSVSSTYLYWYQQKPGSSPKLWIYTTSILASGVPARFSGSGSGTSYSLTISSMETEDAASYFCHQWSSYPFTFGSGTKLDIK"}, "B2": {"name": "murine 224D10 monoclonal antibody (antibody, V domains shown)", "VH": "DLQLQESGPGLVKPSQSLSLTCSVTGYSITSAYFWSWIRQFPGNKLEWMGFINYDGTNNYNPSLKNRISITRDTSKNQFFLRLNSVTTDDTATYYCTRDRTFAYWGQGTLVTVSA", "VL": "DIVLTQSPATLSVTPGDRVSLSCRASQRIYNYLHWYQQKSHESPRLLIKYASQSISGIPSRFSGSGSGTDFILTINSVETEDFGMYFCQQSNSWPLTFGAGTKLELR", "notes": "Whole murine monoclonal antibody secreted by hybridoma CNCM I-3949; a murine IgG1 (9G4) served as its isotype control; also called m224D10; 224D10 Mab"}}, "key": {"[1]": {"biological_target": "recombinant human c-Met-Fc protein (R&D Systems, cat. 358MT) (human) (UniProt P08581)", "sequence (P08581 25-932)": "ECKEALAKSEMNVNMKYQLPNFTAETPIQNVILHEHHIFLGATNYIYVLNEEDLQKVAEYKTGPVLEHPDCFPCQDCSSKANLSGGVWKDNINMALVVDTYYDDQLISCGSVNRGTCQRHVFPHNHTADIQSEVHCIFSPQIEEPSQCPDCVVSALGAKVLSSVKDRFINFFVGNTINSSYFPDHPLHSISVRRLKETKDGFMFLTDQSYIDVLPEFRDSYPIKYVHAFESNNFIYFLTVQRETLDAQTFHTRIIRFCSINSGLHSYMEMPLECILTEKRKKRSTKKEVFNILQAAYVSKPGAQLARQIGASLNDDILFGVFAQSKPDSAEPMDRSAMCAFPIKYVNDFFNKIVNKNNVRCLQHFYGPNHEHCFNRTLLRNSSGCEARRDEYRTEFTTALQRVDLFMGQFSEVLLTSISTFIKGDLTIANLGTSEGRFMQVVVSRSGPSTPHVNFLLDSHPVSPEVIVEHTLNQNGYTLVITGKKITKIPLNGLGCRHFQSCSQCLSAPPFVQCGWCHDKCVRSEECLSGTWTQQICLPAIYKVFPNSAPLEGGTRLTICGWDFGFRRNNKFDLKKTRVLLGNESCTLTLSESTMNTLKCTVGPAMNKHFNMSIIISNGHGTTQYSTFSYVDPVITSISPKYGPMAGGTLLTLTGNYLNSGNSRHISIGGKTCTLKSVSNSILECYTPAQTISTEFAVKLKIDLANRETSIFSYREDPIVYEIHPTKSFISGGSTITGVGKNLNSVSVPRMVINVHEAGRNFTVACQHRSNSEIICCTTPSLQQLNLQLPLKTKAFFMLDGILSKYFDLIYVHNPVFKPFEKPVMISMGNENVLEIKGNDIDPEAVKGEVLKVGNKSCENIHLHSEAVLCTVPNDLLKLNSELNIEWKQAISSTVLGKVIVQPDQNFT", "assay": "displacement of [125I]-HGF (200 pM) from c-Met-Fc immobilized on protein A FlashPlate"}, "[2]": {"biological_target": "T1, recombinant human c-Met-Fc protein (R&D Systems, cat. 358MT) (human, UniProt P08581 25-932)", "T1 construct": "extracellular domain; Bought reagent (R&D Systems 358MT / 358-MT/CF); also called rh c-Met-Fc; HGF-R/Fc chimera protein; not shown: Fc part; polyhistidine tag implied by capture on an anti-polyhistidine Mab; not described", "T1 sequence (P08581 25-932)": "as above", "assay": "displacement of [125I]-HGF (200 pM) from c-Met-Fc immobilized on protein A FlashPlate"}, "[3]": {"biological_target": "T1, recombinant human c-Met-Fc protein (R&D …)", "assay": "Biacore, c-Met-Fc captured by anti-polyhistidine Mab, 224D10 injected second at 20 µg/ml"}, "[4]": {"biological_target": "T2, human c-Met receptor, native, on tumor cells and tumor tissue (human, UniProt P08581 25-1390)", "T2 construct": "whole, on cells; Endogenous c-Met of human tumor cell lines, U87-MG xenografts and human tumor tissues; also called native c-Met; native receptor on tumor cells", "T2 sequence (P08581 25-1390)": "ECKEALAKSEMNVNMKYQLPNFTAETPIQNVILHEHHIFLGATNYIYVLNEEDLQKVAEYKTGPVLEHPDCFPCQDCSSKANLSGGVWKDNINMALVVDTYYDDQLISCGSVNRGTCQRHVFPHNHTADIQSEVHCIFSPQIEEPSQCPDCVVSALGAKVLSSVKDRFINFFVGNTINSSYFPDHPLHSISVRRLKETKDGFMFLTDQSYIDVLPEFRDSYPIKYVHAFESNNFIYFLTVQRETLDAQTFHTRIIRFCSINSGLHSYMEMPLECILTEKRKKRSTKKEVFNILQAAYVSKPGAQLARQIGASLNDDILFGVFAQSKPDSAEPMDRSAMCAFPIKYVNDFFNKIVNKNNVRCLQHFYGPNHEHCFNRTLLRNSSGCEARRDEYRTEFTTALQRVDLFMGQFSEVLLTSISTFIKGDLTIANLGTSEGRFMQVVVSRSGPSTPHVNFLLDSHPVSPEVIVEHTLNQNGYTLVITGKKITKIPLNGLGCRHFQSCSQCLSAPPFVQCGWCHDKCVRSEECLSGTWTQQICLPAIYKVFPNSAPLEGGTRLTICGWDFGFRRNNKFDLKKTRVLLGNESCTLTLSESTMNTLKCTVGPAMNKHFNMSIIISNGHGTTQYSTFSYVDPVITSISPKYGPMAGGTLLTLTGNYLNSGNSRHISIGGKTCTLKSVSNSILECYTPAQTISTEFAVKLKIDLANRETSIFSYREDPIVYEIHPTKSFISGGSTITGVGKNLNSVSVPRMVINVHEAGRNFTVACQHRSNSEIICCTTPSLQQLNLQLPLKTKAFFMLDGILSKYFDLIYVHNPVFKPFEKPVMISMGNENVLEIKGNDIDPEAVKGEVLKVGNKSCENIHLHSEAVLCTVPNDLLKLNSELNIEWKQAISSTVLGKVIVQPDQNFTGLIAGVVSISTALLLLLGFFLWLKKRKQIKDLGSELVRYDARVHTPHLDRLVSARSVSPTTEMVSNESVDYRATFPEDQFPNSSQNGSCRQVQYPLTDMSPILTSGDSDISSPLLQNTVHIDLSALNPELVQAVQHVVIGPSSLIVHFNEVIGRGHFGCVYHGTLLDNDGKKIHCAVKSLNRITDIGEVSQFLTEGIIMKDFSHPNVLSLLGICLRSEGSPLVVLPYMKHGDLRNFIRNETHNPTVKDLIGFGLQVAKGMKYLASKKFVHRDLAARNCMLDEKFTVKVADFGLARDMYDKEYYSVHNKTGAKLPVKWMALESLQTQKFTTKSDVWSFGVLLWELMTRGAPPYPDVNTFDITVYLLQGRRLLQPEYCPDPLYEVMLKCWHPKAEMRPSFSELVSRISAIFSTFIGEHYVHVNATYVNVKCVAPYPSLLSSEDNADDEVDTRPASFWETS", "assay": "IHC on paraffin-embedded human breast and stomach tumor tissues"}}, "data": [{"molecule": "5D5 anti-c-Met Mab (Genentech, hybridoma at the ATCC) (antibody)", "values": [{"measurement": "IC50", "setting": "[1]", "result": 4.4, "unit": "nM"}]}, {"molecule": "B1", "values": [{"measurement": "IC50", "setting": "[2]", "result": 42, "unit": "nM"}]}, {"molecule": "B2", "values": [{"measurement": "binding result", "setting": "[3]", "result": "binds"}, {"measurement": "binding result", "setting": "[4]", "result": "binds"}]}]}
